Sequences and labels used below:
B1: chymase C22S/K40L/F41R/L99H/F173Y/D175Y/S218I/A226R (enzyme)
chain: IIGGTESKPHSRPYMAYLEIVTSNGPSLRCGGFLIRRNFVLTAAHCAGRSITVTLGAHNITEEEDTWQKLEVIKQFRHPKYNTSTHHHDIMLLKLKEKASLTLAVGTLPFPSQFNFVPPGRMCRVAGWGRTGVLKPGSDTLQEVKLRLMDPQACSHYRYFDHNLQLCVGNPRKTKSAFKGDSGGPLLCAGVAQGIVSYGRIDAKPPRVFTRISHYRPWINQILQAN
B2: chymase C22S/P38Q/V213Q/A226R/F228A (enzyme)
chain: B1 chain with P26Q, L28K, R29F, H86L, Y157F, Y159D, V196Q, I201S, F209A
B3: chymase C22S/P38Q/K40M/F41R/D175N/V213Q/S218V/A226R/F228A (enzyme)
chain: B1 chain with P26Q, L28M, H86L, Y157F, Y159N, V196Q, I201V, F209A
B4: chymase C22S/P38Q/K40L/F41R/L99N/V138I/F173Y/D175N/A190S/V213A/S218V/A226R (enzyme)
chain: B1 chain with P26Q, H86N, V125I, Y159N, A177S, V196A, I201V
B5: chymase C22S/P38Q/K40A/F41R/V138I/D175R/A190S/V213A/S218T/A226R (enzyme)
chain: B1 chain with P26Q, L28A, H86L, V125I, Y157F, Y159R, A177S, V196A, I201T
B6: chymase C22S/P38Q/K40A/F41R/L99H/D175N/V213Q/S218I/A226R/F228A (enzyme)
chain: B1 chain with P26Q, L28A, Y157F, Y159N, V196Q, F209A
B7: chymase C22S/P38Q/K40A/F41R/V138I/F173S/D175T/A190S/V213A/S218V/A226R (enzyme)
chain: B1 chain with P26Q, L28A, H86L, V125I, Y157S, Y159T, A177S, V196A, I201V
B8: chymase C22S/P38Q/V138I/A190S/V213A/A226R (enzyme)
chain: B1 chain with P26Q, L28K, R29F, H86L, V125I, Y157F, Y159D, A177S, V196A, I201S
B9: chymase C22S/P38Q/K40M/F41R/V138I/F173Y/D175R/A190S/V213A/S218V/A226R (enzyme)
chain: B1 chain with P26Q, L28M, H86L, V125I, Y159R, A177S, V196A, I201V
B10: chymase C22S/P38Q/K40M/F41R/L99M/F173Y/D175N/V213Q/S218V/A226R/F228A (enzyme)
chain: B1 chain with P26Q, L28M, H86M, Y159N, V196Q, I201V, F209A
B11: chymase C22S/P38Q/K40M/F41H/L99N/V138I/F173Y/D175S/A190S/V213A/S218T/A226R (enzyme)
chain: B1 chain with P26Q, L28M, R29H, H86N, V125I, Y159S, A177S, V196A, I201T
B12: chymase C22S/P38Q/K40M/F41K/L99Y/V138I/F173M/D175Y/A190S/V213A/S218V/A226R (enzyme)
chain: B1 chain with P26Q, L28M, R29K, H86Y, V125I, Y157M, A177S, V196A, I201V
B13: chymase C22S/K40M/F41R/L99Q/F173Y/D175R/S218I/A226R (enzyme)
chain: B1 chain with L28M, H86Q, Y159R
B14: chymase C22S/P38Q/K40A/F41R/L99H/V138I/F173Y/D175N/A190S/V213A/S218V/A226R (enzyme)
chain: B1 chain with P26Q, L28A, V125I, Y159N, A177S, V196A, I201V
B15: chymase C22S/P38Q/K40A/F41R/L99H/V138I/F173Y/A190S/V213A/S218V/A226R (enzyme)
chain: B1 chain with P26Q, L28A, V125I, Y159D, A177S, V196A, I201V
B16: chymase C22S/P38Q/K40L/F41R/L99H/V138I/F173Y/D175S/A190S/V213A/S218I/A226R (enzyme)
chain: B1 chain with P26Q, V125I, Y159S, A177S, V196A
B17: chymase C22S/P38Q/K40A/F41K/L99H/V138I/D175S/A190S/V213A/S218V/A226R (enzyme)
chain: B1 chain with P26Q, L28A, R29K, V125I, Y157F, Y159S, A177S, V196A, I201V
B18: chymase C22S/P38Q/K40A/F41R/L99H/F173Y/D175Y/V213Q/S218V/A226R/F228A (enzyme)
chain: B1 chain with P26Q, L28A, V196Q, I201V, F209A
B19: chymase C22S/P38Q/K40L/F41R/V138I/F173Y/D175N/A190S/V213A/S218V/A226R (enzyme)
chain: B1 chain with P26Q, H86L, V125I, Y159N, A177S, V196A, I201V
B20: chymase C22S/P38Q/K40M/F41R/L99N/V138I/F173Y/D175T/A190S/V213A/S218V/A226R (enzyme)
chain: B1 chain with P26Q, L28M, H86N, V125I, Y159T, A177S, V196A, I201V

Residue numbers refer to the chain shown, from its start. Numbers in names are those of the source.

In the experiment the target is Human Factor B (human) (UniProt P00751). In words: cell-based or functional assay.
Chain of Human Factor B (human) (P00751 26-764 limits assumed): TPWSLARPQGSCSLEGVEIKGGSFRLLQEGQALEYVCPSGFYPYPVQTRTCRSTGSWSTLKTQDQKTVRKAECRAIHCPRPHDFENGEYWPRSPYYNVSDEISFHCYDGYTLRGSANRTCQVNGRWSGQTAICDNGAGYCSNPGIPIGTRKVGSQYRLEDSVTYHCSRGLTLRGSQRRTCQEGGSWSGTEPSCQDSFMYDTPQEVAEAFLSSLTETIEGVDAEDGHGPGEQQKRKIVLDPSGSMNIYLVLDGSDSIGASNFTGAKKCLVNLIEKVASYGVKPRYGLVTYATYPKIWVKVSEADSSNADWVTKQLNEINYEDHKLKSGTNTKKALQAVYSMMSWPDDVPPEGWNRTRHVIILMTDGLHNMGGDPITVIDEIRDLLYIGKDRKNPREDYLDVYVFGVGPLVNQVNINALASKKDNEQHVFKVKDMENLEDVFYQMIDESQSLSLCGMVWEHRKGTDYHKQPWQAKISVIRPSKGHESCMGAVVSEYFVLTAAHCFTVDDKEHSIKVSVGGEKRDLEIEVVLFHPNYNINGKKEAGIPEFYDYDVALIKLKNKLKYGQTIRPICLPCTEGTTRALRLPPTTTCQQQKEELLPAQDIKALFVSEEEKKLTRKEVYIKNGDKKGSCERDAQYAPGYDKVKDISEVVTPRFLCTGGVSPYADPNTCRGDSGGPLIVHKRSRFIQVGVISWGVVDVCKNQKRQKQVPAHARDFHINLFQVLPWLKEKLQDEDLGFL
B1 showed a fB Cleavage EC50 of 84 nM and a fB Cleavage, 80% plasma EC50 of 5560 nM. B2 yielded a fB Cleavage EC50 of 6210 nM. Turning to B3, the fB Cleavage EC50 was 932 nM.

Take B4: the fB Cleavage EC50 came out at 65.3 nM. Still for that read-out and setting: next, B5: 262 nM. Same read-out and setting: next, B6: 553 nM. On the same count and under the same terms, next, B7: 1720 nM.

Take B8: the fB Cleavage EC50 is 1350 nM.

Regarding B9, the EC50 (Factor B ELISA after digestion) is 30.2 nM and the fB Cleavage EC50 came out at 28.1 nM. Regarding B10, the fB Cleavage EC50 amounted to 788 nM.

For the molecule B11, the fB Cleavage EC50 came out at 561 nM. The molecule B12 registered a fB Cleavage EC50 of 448 nM.

As for B13, the fB Cleavage EC50 is 213 nM and the fB Cleavage, 80% plasma EC50 was 4480 nM. B14: the fB Cleavage EC50 was 71.8 nM. Same read-out and setting: the value for B15 was 406 nM; that for B16 was 60.3 nM. Still for that read-out and setting: next, B17: 142 nM.

Consider B18, for which the fB Cleavage EC50 turned out to be 769 nM.

B19 displayed an EC50 (Factor B ELISA after digestion) of 42.5 nM and a fB Cleavage EC50 of 36.3 nM. For the molecule B20, the fB Cleavage EC50 was determined as 92.1 nM.

The record behind these values is patent US20240117334A1, “FACTOR B PROTEASES” (Vertex Pharmaceuticals Incorporated, priority 2021, published 2024).
